Patent US20230071609A1 (Genentech, published 2023)

How the values were obtained:
[1] = molecular target: T1, APOL6-myc-FLAG (human, UniProt Q9BWW8 1-343); assay: immunofluorescence on transfected COS cells; grade
T1 construct: whole, on cells; In fixed, permeabilized transfected COS cells; untagged APOL6 in the western blots; not shown: C-terminal myc-FLAG tag
T1 sequence (looked up): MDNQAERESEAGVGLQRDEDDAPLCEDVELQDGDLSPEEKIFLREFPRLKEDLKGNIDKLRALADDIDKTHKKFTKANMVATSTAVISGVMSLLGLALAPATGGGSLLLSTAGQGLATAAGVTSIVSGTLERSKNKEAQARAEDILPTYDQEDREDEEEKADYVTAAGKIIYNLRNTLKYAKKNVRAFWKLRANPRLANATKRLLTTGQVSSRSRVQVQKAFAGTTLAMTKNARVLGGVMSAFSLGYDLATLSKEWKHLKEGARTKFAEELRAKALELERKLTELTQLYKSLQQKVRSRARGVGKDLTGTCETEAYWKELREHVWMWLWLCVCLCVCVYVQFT
Text: COS cells were transfected as in FIG. 31A except APOL1 and APOL2 were also C-terminally myc-FLAG tagged. Overlays of APOL with epitope tags: either mouse anti-FLAG-M2 or mouse anti-myc 9E10 for anti-APOL1 rabmabs; or rabbit anti-Myc 71D10 in conjunction with mouse anti-APOL1. Signals indicate the two antibodies overlap (i.e. anti-APOL1 cross-reacts with that APOL); signals (epitope tag only) indicate no cross-reactivity. Alexa647 anti-rabbit or mouse were used for the tags to rule out the possibility that any colocalization was a bleed-through artifact. Sparsely transfected areas were imaged to permit evaluation of background staining in adjacent untransfected cells—DAPI nuclear staining identifies both untransfected and transfected cell nuclei. […] Note that none of the antibodies cross-reacted with the more distantly related APOL6. *, APOL2-myc-FLAG is presumably misfolded, since it is not as cross-reactive as untagged APOL2 (compare FIG. 31A) with several antibodies. Commercial antibodies are Sigma HPA018885, Epitomics EPR2907 (2) (Epito) and Proteintech 11486-2-AP (Ptech).
Cells were plated on LabTekII (Nalge Nunc 154534) slides and fixed at 70-100% confluency. For mAb screening, cells were fixed/permeabilized for 5 min in −20° C. methanol (EMD MX0485-6). For all other experiments, cells were fixed in 3% paraformaldehyde in PBS (EMS 15710) for 20 mins at room temperature, quenched with 50 mM NH₄Cl in PBS for 10 mins, then permeabilized with 0.1% TX-100 in PBS for 4 mins or for 1h in saponin buffer [0.4% saponin (Sigma S7900), 1% bovine serum albumin (BSA; Sigma A2153), 2% fetal bovine serum (Seradigm) in PBS]. First antibodies (stored sterile at 4° C.) were applied for 1 h at room temperature, at 1 μg/ml for screening on transfected cells or at subsequently optimized concentrations for detecting endogenous APOL1. After 3×10 min washes in PBS (for Methanol or TX-100 protocols) or saponin buffer (saponin protocol), secondary antibodies were applied at 1.88 μg/ml for 1 h at room temperature, washed 3× and mounted under No. 1.5 coverslips in ProLong Gold with DAPI (4′,6-diamidino-2-phenylindole; Life Technologies P36931).

[2] = molecular target: T2, untagged APOL1-G0, KIK variant, transiently expressed (COS cells) (human, UniProt O14791 29-398); assay: immunofluorescence on transfected COS cells, 1 µg/ml; grade
T2 construct: Origene SC109941 clone with E150K, M228I, R255K
T2 chain: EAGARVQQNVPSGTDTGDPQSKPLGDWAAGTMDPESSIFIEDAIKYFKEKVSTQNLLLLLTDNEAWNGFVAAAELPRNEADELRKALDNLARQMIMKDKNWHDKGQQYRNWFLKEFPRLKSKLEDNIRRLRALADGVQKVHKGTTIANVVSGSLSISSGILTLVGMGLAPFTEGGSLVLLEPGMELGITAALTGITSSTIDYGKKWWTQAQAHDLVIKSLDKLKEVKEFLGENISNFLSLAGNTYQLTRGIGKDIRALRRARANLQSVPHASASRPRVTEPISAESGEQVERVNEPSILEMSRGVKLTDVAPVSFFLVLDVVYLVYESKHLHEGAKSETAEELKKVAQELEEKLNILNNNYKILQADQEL

[3] = molecular target: T3, circulating APOL1 in normal human serum (human, UniProt O14791 28-398); assay: cell-based or functional assay
T3 sequence (looked up): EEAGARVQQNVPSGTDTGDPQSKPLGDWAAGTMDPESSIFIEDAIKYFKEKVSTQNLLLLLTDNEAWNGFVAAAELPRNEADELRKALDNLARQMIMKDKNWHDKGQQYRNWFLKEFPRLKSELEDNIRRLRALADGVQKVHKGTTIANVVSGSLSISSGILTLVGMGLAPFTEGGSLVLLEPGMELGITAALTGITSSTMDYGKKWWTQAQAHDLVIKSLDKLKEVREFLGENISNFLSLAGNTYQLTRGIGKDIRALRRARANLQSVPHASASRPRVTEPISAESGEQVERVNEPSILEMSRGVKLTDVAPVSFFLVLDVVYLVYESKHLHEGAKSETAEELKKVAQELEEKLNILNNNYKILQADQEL

[4] = molecular target: T4, gD-SRA-ID-GPI (construct e) (human, UniProt O14791 305-398, C-terminal GPI anchor); assay: flow cytometry, live CHO cells; 3.3A8 is the representative for the C-terminus of MAD
T4 sequence: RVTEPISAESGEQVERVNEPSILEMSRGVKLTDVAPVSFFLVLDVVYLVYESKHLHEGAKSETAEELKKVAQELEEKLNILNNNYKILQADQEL
Description: (§1) Stably transfected live (not fixed or permeabilized) CHO cells expressing the gD-iAPOL1-GPI constructs indicated in FIGS. 1A-1E after induction with 5 μg/ml dox for 48 h, showing differential antibody binding at 5 μg/ml. […] White histograms are Alexa488 anti-mouse or anti-rabbit secondaries only; grey histograms are the anti-APOL1 signals. A representative histogram for each category is shown: 3.7D6 for PFD; 3.3A8 for C-terminus of MAD, 3.5H9 for N-terminus of MAD; 3.1C1 for SRA-ID; 3.2D4 for multi-domain; 3.3F7 for conformational and 3.5B10 for FACS-negative (FACS-ve). The prefix 3 in the name of the antibodies denotes murine monoclonals from Method #3 (as shown in Example 1 below); other antibodies (not illustrated here) starting with the number 4 are murine monoclonals derived from mice additionally boosted with SRA-ID protein; and prefix 5-named antibodies are rabbit monoclonals from Method #5 (Table 2A; and Example 2). […] The Sigma polyclonal (HPA018885, raised to aa 263-387) and the Epitomics rabbit monoclonal (EPR2907(2), raised to an undisclosed peptide) are SRA-ID binders. […]
(§2) Cells were harvested with 5 mM EDTA in PBS, washed once with growth media and twice with PBS. […] Signals were read in a FACSCalibur3 (Becton Dickinson), with the exception of FIG. 8A and FIG. 14, which used a FACSCelesta, and data was analyzed using FlowJo v8.4.5.

[5] = molecular target: T5, gD-PFD-MAD-GPI (construct c) (human, UniProt O14791 61-305, C-terminal GPI anchor); assay: flow cytometry, live CHO cells; conformational = only bound to full length APOL1, but not individual domains
T5 sequence: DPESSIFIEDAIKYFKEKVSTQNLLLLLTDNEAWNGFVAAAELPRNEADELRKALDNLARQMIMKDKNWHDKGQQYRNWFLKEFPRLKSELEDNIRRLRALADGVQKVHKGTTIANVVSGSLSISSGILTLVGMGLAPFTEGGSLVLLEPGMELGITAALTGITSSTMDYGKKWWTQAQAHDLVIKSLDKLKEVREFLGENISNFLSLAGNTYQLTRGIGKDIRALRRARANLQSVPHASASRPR
Description: (§3) Stably transfected live (not fixed or permeabilized) CHO cells expressing the gD-iAPOL1-GPI constructs indicated in FIGS. 1A-1E after induction with 5 μg/ml dox for 48 h, showing differential antibody binding at 5 μg/ml. […] White histograms are Alexa488 anti-mouse or anti-rabbit secondaries only; grey histograms are the anti-APOL1 signals. A representative histogram for each category is shown: 3.7D6 for PFD; 3.3A8 for C-terminus of MAD, 3.5H9 for N-terminus of MAD; 3.1C1 for SRA-ID; 3.2D4 for multi-domain; 3.3F7 for conformational and 3.5B10 for FACS-negative (FACS-ve). The prefix 3 in the name of the antibodies denotes murine monoclonals from Method #3 (as shown in Example 1 below); other antibodies (not illustrated here) starting with the number 4 are murine monoclonals derived from mice additionally boosted with SRA-ID protein; and prefix 5-named antibodies are rabbit monoclonals from Method #5 (Table 2A; and Example 2). […] The Sigma polyclonal (HPA018885, raised to aa 263-387) and the Epitomics rabbit monoclonal (EPR2907(2), raised to an undisclosed peptide) are SRA-ID binders. Successful APOL1 surface expression of each construct was confirmed with the anti-gD epitope tag (gD-tag) antibody (to Herpes Simplex Virus glycoprotein D).
(§4) Cells were harvested with 5 mM EDTA in PBS, washed once with growth media and twice with PBS. Approximately 0.5×10⁶/m1 of cells resuspended in PBS were incubated with anti-APOL1 antibodies for 1 h on ice. Following two PBS washes, 2 μg/ml of Alexa488 anti-mouse or anti-rabbit (Invitrogen A11029 and A21206, respectively) was used for 1 h on ice for detection. Cells were washed twice in PBS and resuspended in PBS with 1 μg/ml propidium iodide. Signals were read in a FACSCalibur3 (Becton Dickinson), with the exception of FIG. 8A and FIG. 14, which used a FACSCelesta, and data was analyzed using FlowJo v8.4.5.

[6] = molecular target: T6, gD-MAD-SRA-ID-GPI (construct d) (human, UniProt O14791 238-398, C-terminal GPI anchor); assay: as above
T6 sequence: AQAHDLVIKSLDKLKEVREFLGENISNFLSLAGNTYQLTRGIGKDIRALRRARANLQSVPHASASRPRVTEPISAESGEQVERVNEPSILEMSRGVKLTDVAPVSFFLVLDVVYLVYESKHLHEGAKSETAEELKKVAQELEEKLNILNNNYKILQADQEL
Description: as §3, §4

[7] = molecular target: T4, gD-SRA-ID-GPI (construct e); assay: as above
Description: as §3, §4

[8] = molecular target: T7, gD-iAPOL1-GPI (construct b, aa 61-398) (human, UniProt O14791 61-398, C-terminal GPI anchor); assay: flow cytometry, live CHO cells, 5 µg/ml; conformational = only bound to full length APOL1
T7 construct: Stably expressed on CHO cells under a doxycycline-inducible promoter; also called gD-APOL1-GPI; gD-APOL1-G0-GPI
T7 sequence: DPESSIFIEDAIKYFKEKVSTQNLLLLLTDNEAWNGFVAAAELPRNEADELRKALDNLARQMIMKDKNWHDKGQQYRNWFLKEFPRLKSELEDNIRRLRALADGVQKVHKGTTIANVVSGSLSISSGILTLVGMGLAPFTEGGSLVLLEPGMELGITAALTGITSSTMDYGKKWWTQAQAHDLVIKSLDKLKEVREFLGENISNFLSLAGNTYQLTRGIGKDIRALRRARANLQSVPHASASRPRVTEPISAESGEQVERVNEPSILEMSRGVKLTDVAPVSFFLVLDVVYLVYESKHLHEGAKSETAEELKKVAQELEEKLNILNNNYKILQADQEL
Description: as §1, §2

[9] = molecular target: T3, circulating APOL1 in normal human serum; assay: immunoprecipitation from normal human serum with Dynabead-conjugated antibody
Description: FIGS. 17A-17C show immunoprecipitation of APOL1 from NHS with a different set of APOL1 antibodies. FIG. 17A show as in FIG. 5D that all the blocking antibodies could immunoprecipitate APOL1, except the conformational antibody 3.7F5 (SEQ ID NOS: 203-212), which is also a poor blocker.
Anti-APOL1 antibodies were conjugated to Dynabeads (ThermoFisher 14311D) as per the manufacturer's protocol. Briefly, 10 μg of each antibody was conjugated to 2 mg of Dynabeads overnight at 37° C. with rotation. Next day, unbound antibody was washed off and conjugated antibody was resuspended at a final concentration of 50 μg/ml. 2-5 μg of the conjugated antibody was incubated with 1 μl of undiluted human serum at 4° C. for 16 h in a total volume of 500 μl with PBS. Unbound serum was washed with 150 mM NaCl in PBS. Bound APOL1 was eluted with low pH glycine buffer (this was preferable to direct boiling to avoid elution of non-specifically bound proteins). Eluates were boiled in 5× sample buffer (Invitrogen 39000) and loaded on 4-12% Bis-Tris gels (Invitrogen NP03220). Immunoprecipitated APOL1 was detected by rabbit polyclonal APOL1 antibody (Proteintech 11486-2-AP, 1:1000) and ECL. APOA1 was detected with goat anti-APOA1 (Rockland 600-101-109), HPR was detected with 1 μg/ml rabbit anti-HPR (Millipore ABS 196) and ECL Prime. […]

B1: antibody 3.3A8 (antibody, V domains shown)
VH: QVQFQQSGAELVRPGASVKVTCKALGYTFSNYEIHWVRQPPVHGLEWIGAIHPGNGVTAYNQMFKGRATLAADKSSSTAYMELSSLTSEDSAVYYCTENFDYWGQGTALTVSS
VL: DVVVTQTPLSLPVSFGDQVSISCRSSQSLTNSYGITYLSWFLLKPGQSPQLLIYEISNRFSGVPDRFSGSGSGTDFTLKISTIKPEDLGVYFCLQGTHQPFTFGAGTKLEIKR
notes: Mouse mAb, cloned as murine IgG2a LALAPG; also called MAD antibody 3.3A8
binding result [1]: no binding (tested: 1 µg/ml)
binding result [2]: binds
IC50 of blocking of serum APOL1-mediated trypanolysis (Alamar Blue) [3]: 0.4 nM
binding result [4]: no binding (tested: 5 µg/ml)

B2: antibody 3.3F7 (antibody, V domains shown)
VH: QVQLKQSGPSLVQPSQSLSITCTVSGFSLTTYGVHWVRQSPGKGLEWLGVIWRGGNTDYNAAFMSRLSITKDNSQSQVFFKMNSLQADDTAIYYCAKSSYGYHYTMDYWGHGTSVTVSS
VL: DIVVTQSHRFMSTSVGDRVIITCKASQNVGTAVAWYQQKPGQSPKLLIYWASTRHTGVPDRFTGSGSGTDFTLTISNVQSEDLADYFCQRYNNFPFTFGSGTKLEIKR
notes: Mouse mAb, cloned as murine IgG2a LALAPG
binding result [5]: no binding (tested: 5 µg/ml)
binding result [6]: no binding (tested: 5 µg/ml)
binding result [7]: no binding (tested: 5 µg/ml)
binding result [8]: binds

B3: antibody 3.7F5 (antibody, V domains shown)
VH: EIHLQQSGPEVVQPGASLKVSCKASDYSFTDYNVFWVKQSHGKSLEWIAYIDPYNGATSYNQKFKDKATLTVDKSSSTAFMYLNSLTSEDSAVYYCARGTVRAFFDSWGQGTTLTVSS
VL: DIVMSQSPSSLVVSVGEKVSLSCKSSQSLLYRNDQINYLAWYQQKPGQSPKLLIFWASTRESGVPVRFTGSGSGTDFTLNINTVKAEDLAVYYCQQYYSYPPTFGTGTKLEIKR
notes: Mouse mAb, cloned as murine IgG2a LALAPG; also called conformational antibody 3.7F5
binding result [9]: no binding
